What all share (settings): both partners purified
Test [1] deals with T1, human OX40 extracellular domain (recombinant, C-terminal His tag) (Homo sapiens).
T1 construct: OX40 (TNFRSF4, CD134), human, extracellular domain (four cysteine-rich domains CRD1-4); The deposited entries 8AG1 and 7YK4 hold the construct; also called hOX40; TNFRSF4; source: HEK293F, transient expression, purified (HisTrap, Superdex 200 gel filtration)
T1 chain: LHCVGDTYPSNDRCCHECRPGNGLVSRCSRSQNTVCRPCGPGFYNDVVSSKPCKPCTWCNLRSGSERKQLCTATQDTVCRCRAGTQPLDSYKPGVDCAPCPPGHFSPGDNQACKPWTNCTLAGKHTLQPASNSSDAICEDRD
As to the kind of experiment: ELISA; human OX40 variants coated on a 96-well plate; serially diluted antibody added for 2 h at 37 °C; detected with goat (Fab')2 anti-human IgG Fc (HRP).

Test [2] deals with T2, OX40-G70A (human, UniProt P43489, G70A).
T2 construct: OX40 (TNFRSF4), human, extracellular domain with G70A; Tag and host are told for recombinant OX40 in general, not for the variants by name; also called G70A variant of human OX40; source: HEK293F, transient expression, purified (told for recombinant human OX40 in general)
In words: BLI; DF004 (10 μg/mL) loaded on protein A sensors; OX40 variants as two-fold serial dilutions in PBS with 1% BSA; association 120 s, dissociation up to 320 s; Octet K2. For orientation: In BLI a coated tip is dipped into the sample, and binding shifts an interference pattern.

In test [3] the target is T1, human OX40 extracellular domain …. The description is as above.

In general, EC50 refers to the concentration at which the effect is half-maximal. The term Kd denotes a measure of binding affinity in units of concentration.

B1: DF004 (full antibody, IgG1) (antibody, V domains shown)
VH: QVQLQQSGPGLVKPSQTLSLTCAISGDSVSSNSVSWDWIRQSPSRGLEWLGRTYYRSKWYNEYAVSVESRITINPDTSKNQFSLQLNSVTPEDTAIYFCVRNDYFFDLWGRGTLVTVSS
VL: EIVLTQSPATLSLSPGERATLSCRASQSVGSYLAWYQQKPGQAPRLLIYDASNRATGIPARFSGSGSGTDFTLTISSLEPEDFAVYYCQQRSNWPPGYTFGQGTKLEIK
notes: VH of DF004, as in the heavy chain (VH-CH1) of m3; IgG1 constant region; as the light chain (VL-CL) of m3; IgG1; scFv clone from a yeast display library made from PBMCs of healthy human donors, variable fragments grafted onto IgG1 Fc; source: HEK293F, transient expression, purified from the expression medium (protein A column)
On to B1, for which, in test [1], the EC50 is about 0.09 nM. Moreover, the “fold decrease of binding affinity against wild-type OX40 (kd value)” value in test [2] is about 32 fold. In addition, the Kd in test [3] amounted to 4.39 nM.

The record behind these values is article PMC9496217, “Structural Basis of a Novel Agonistic Anti-OX40 Antibody” (Biomolecules, 2022).
